Reference: publication PMC3855604
Read-outs that look alike come from different tables or passages of the source. Blank lines part the entries; values can stand above or below the substance they belong to.

What was measured:
[1] = biological target: non-glycosylated Q123K PAI-1 (human) (UniProt P05121)
[2] = biological target: wild type glycosylated PAI-1 (human) (UniProt P05121)
[3] = biological target: wild type recombinant non-glycosylated PAI-1 (human) (UniProt P05121)
[4] = biological target: S119C (NBD S119C) PAI-1 (human) (UniProt P05121); assay: stopped-flow fluorimetry
[5] = biological target: complex of NBD S119C PAI-1 with S195A tcuPA (UniProt P05121); assay: stopped-flow fluorimetry
[6] = biological target: S119C (NBD S119C) PAI-1 (human) (UniProt P05121); assay: stopped-flow fluorimetry; remark: listed apart in the source
[7] = biological target: complex of wt rPAI-1 with Vn (UniProt P05121)
[8] = biological target: non-glycosylated Q123K PAI-1 (human) (UniProt P05121); assay: competition read by tPA amidolytic activity
[9] = biological target: M447C (NBD P1′) PAI-1 (human); assay: stopped-flow fluorimetry
[10] = biological target: non-glycosylated Q123K PAI-1 (human) (UniProt P05121); assay: competition read by tPA amidolytic activity; remark: listed apart in the source
[11] = biological target: wild type glycosylated PAI-1 (human) (UniProt P05121); assay: competition read by tPA amidolytic activity
M447C (NBD P1′) PAI-1 = assay: stopped-flow fluorimetry; details: other: stopped-flow fluorimetry

- kL2 (spontaneous inactivation of Q123K PAI-1 with Vn), 37°C [1]: 0.00018 s⁻¹
- kL2 (spontaneous inactivation of Q123K PAI-1 with Vn), 50°C [1]: 0.0081 s⁻¹
- kL2 (spontaneous inactivation of Q123K PAI-1 with Vn), 55°C [1]: 0.0109 s⁻¹
- kL2 (spontaneous inactivation of Q123K PAI-1 with Vn), 60°C [1]: 0.0222 s⁻¹
- kL2 (spontaneous inactivation of PAI-1 with Vn), 37°C [2]: 3.6e-05 s⁻¹
- kL2 (spontaneous inactivation of PAI-1 with Vn), 50°C [2]: 0.00043 s⁻¹
- kL2 (spontaneous inactivation of PAI-1 with Vn), 55°C [2]: 0.001 s⁻¹
- kL2 (spontaneous inactivation of PAI-1 with Vn), 60°C [2]: 0.0049 s⁻¹
- kL2 (spontaneous inactivation of PAI-1 with Vn), 60°C [3]: 0.011 s⁻¹
- koff [4]: 0.0022 to 0.0072 s⁻¹
- kon [4]: 7.2e+06 M⁻¹ s⁻¹
- kon [5]: 1.33e+07 M⁻¹ s⁻¹
- kon [6]: 7.5e+06 M⁻¹ s⁻¹
Substance: Monomeric vitronectin (natural protein)

- kL4 (spontaneous inactivation of PAI-1 with Vn and S195A tcuPA), 37°C [7]: 3.4e-06 s⁻¹
- kL4 (spontaneous inactivation of PAI-1 with Vn and S195A tcuPA), 50°C [7]: 0.00011 s⁻¹
- kL4 (spontaneous inactivation of PAI-1 with Vn and S195A tcuPA), 55°C [7]: 0.00012 s⁻¹
- kL4 (spontaneous inactivation of PAI-1 with Vn and S195A tcuPA), 60°C [7]: 0.00042 s⁻¹
- kL3 (spontaneous inactivation of Q123K PAI-1 with S195A tcuPA), 37°C [1]: 5e-05 s⁻¹
- kL3 (spontaneous inactivation of Q123K PAI-1 with S195A tcuPA), 50°C [1]: 0.00066 s⁻¹
- kL3 (spontaneous inactivation of Q123K PAI-1 with S195A tcuPA), 60°C [1]: 0.00122 s⁻¹
- kL3 (spontaneous inactivation of PAI-1 with S195A tcuPA), 50°C [2]: 0.00024 s⁻¹
- kL3 (spontaneous inactivation of PAI-1 with S195A tcuPA), 60°C [2]: 0.0025 s⁻¹
- Kd [8]: 1.3 nM
- Kd [9]: 24.6 nM
- koff [9]: 0.15 s⁻¹
- kon [9]: 6.1e+06 M⁻¹ s⁻¹
- Kd [10]: 1.3 nM
- Kd [11]: 1.2 nM
Substance: S195A two chain urokinase (S356A; S195A in chymotrypsin numbering) (enzyme)

Substance: recombinant two chain urokinase
- KM (M447C (NBD P1′) PAI-1): 10.2 ± 2.2 µM

- kon [9]: 2.68e+07 M⁻¹ s⁻¹
Substance: recombinant two chain urokinase (enzyme)
